Laboratory results from the RNAGym collection of RNA variant scans (doi:10.1093/molbev/msab373).

B1: Azoarcus group I ribozyme (parent)
chain: GUGCCUUGCGCCGGGAAACCACGCAAGGGAUGGUGUCAAAUUCGGCGAAACCUAAGCGCCCGCCCGGGCGUAUGGCAACGCCGAGCCAAGCUUCGGCGCCUGCGCCGAUGAAGGUGUAGAGACUAGACGGCACCCACCUAAGGCAAACGCUAUGGUGAAGGCAUAGUCCAGGGAGUGGCGAAAGUCACACAAACCGG

Variants of: B1
Experiment: reverse-splicing fitness (ratio to wild type); higher = more active; in vitro selection; Mg2+ level not given
Summary of the method: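 An in vitro group I ribozyme library with randomized positions was T7-transcribed and gel-purified. In triplicate, 10 pmol RNA in EPPS pH 7.5 was reacted with 50 pmoles of a 30-nt RNA substrate for 1 h at 37 °C across several added MgCl2 levels (1–48 mM), then stopped with EDTA. Products were reverse transcribed from a substrate-complementary primer, PCR-amplified and sequenced (HiSeq 4000). Fitness is a variant's read proportion after selection over that before, normalised to wild type.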

Point of comparison: GUGCCUUGCGCCGGGAAACCACGCAAGGGAUGGUGUCAAAUUCGGCGAAACCUAAGCGCCCGCCCGGGCGUAUGGCAACGCGGAGCCAAGCUUCGGCGCCUGCGCCGAUGGAGGUGUAGUGACUAGACGGCACCCACCUAAGGCGAACGAUAUGGUGAAGGCAUAGUCCAGGGAGUGGCGAAAGUCACACAAACCGG [C82G A111G A120U A145G C150A], reverse-splicing fitness 0.0116. Against it:
- GUGCCUUGCGCCGGGAAACCACGCAAGGGAUGGUGUCAAAUUCGGCGAAACCUAAGCGCCCGCCCGGGCGUAUGGCAACGCGGAGCCAAGCUUCGGCGCCUGCGCCGAUGGAGGUGUAGUGACUAGACGGCACCCACCUAAGGCCAACGUUAUGGUGAAGGCAUAGUCGAGGGAGCGGCGAAAGUCACACAAACCGG [C82G A111G A120U A145C C150U C169G U176C] — lower, 0.0031
- GUGCCUUGCGCCGGGAAACCACGCAAGGGAUGGUGUCAAAUUCGGCGAAACCUAAGCGCCCGCCCGGGCGUAUGGCAACGCGGAGCCAAGCUUCGGCGCCUGCGCCGAUGGAGGUGUAGUGACUAGACGGCACCCACCUAAGGCCAACGUUAUGGUGAAGGCAUAGUCGAGGGAGAGGCGAAAGUCACACAAACCGG [C82G A111G A120U A145C C150U C169G U176A] — lower, 0.00296
- GUGCCUUGCGCCGGGAAACCACGCAAGGGAUGGUGUCAAAUUCGGCGAAACCUAAGCGCCCGCCCGGGCGUAUGGCAACGCGGAGCCAAGCUUCGGCGCCUGCGCCGAUGGAGGUGUAGUGACUAGACGGCACCCACCUAAGGCCAACGCUAUGGUGAAGGCAUAGUCGAGGGAGCGGCGAAAGUCACACAAACCGG [C82G A111G A120U A145C C169G U176C] — lower, 0.00181
- GUGCCUUGCGCCGGGAAACCACGCAAGGGAUGGUGUCAAAUUCGGCGAAACCUAAGCGCCCGCCCGGGCGUAUGGCAACGCGGAGCCAAGCUUCGGCGCCUGCGCCGAUGGAGGUGUAGUGACUAGACGGCACCCACCUAAGGCCAACGCUAUGGUGAAGGCAUAGUCGAGGGAGGGGCGAAAGUCACACAAACCGG [C82G A111G A120U A145C C169G U176G] — lower, 0.00165
- GUGCCUUGCGCCGGGAAACCACGCAAGGGAUGGUGUCAAAUUCGGCGAAACCUAAGCGCCCGCCCGGGCGUAUGGCAACGCGGAGCCAAGCUUCGGCGCCUGCGCCGAUGGAGGUGUAGUGACUAGACGGCACCCACCUAAGGCCAACGCUAUGGUGAAGGCAUAGUCGAGGGAGAGGCGAAAGUCACACAAACCGG [C82G A111G A120U A145C C169G U176A] — lower, 0.00244
- GUGCCUUGCGCCGGGAAACCACGCAAGGGAUGGUGUCAAAUUCGGCGAAACCUAAGCGCCCGCCCGGGCGUAUGGCAACGCGGAGCCAAGCUUCGGCGCCUGCGCCGAUGGAGGUGUAGUGACUAGACGGCACCCACCUAAGGCCAACGUUAUGGUGAAGGCAUAGUCUAGGGAGAGGCGAAAGUCACACAAACCGG [C82G A111G A120U A145C C150U C169U U176A] — lower, 0.00258
- GUGCCUUGCGCCGGGAAACCACGCAAGGGAUGGUGUCAAAUUCGGCGAAACCUAAGCGCCCGCCCGGGCGUAUGGCAACGCGGAGCCAAGCUUCGGCGCCUGCGCCGAUGGAGGUGUAGUGACUAGACGGCACCCACCUAAGGCCAACGUUAUGGUGAAGGCAUAGUCUAGGGAGGGGCGAAAGUCACACAAACCGG [C82G A111G A120U A145C C150U C169U U176G] — lower, 0.00214
- GUGCCUUGCGCCGGGAAACCACGCAAGGGAUGGUGUCAAAUUCGGCGAAACCUAAGCGCCCGCCCGGGCGUAUGGCAACGCGGAGCCAAGCUUCGGCGCCUGCGCCGAUGGAGGUGUAGUGACUAGACGGCACCCACCUAAGGCCAACGUUAUGGUGAAGGCAUAGUCUAGGGAGCGGCGAAAGUCACACAAACCGG [C82G A111G A120U A145C C150U C169U U176C] — lower, 0.00268
- GUGCCUUGCGCCGGGAAACCACGCAAGGGAUGGUGUCAAAUUCGGCGAAACCUAAGCGCCCGCCCGGGCGUAUGGCAACGCGGAGCCAAGCUUCGGCGCCUGCGCCGAUGGAGGUGUAGUGACUAGACGGCACCCACCUAAGGCCAACGCUAUGGUGAAGGCAUAGUCUAGGGAGGGGCGAAAGUCACACAAACCGG [C82G A111G A120U A145C C169U U176G] — lower, 0.00131
- GUGCCUUGCGCCGGGAAACCACGCAAGGGAUGGUGUCAAAUUCGGCGAAACCUAAGCGCCCGCCCGGGCGUAUGGCAACGCGGAGCCAAGCUUCGGCGCCUGCGCCGAUGGAGGUGUAGUGACUAGACGGCACCCACCUAAGGCCAACGCUAUGGUGAAGGCAUAGUCUAGGGAGAGGCGAAAGUCACACAAACCGG [C82G A111G A120U A145C C169U U176A] — lower, 0.00244
- GUGCCUUGCGCCGGGAAACCACGCAAGGGAUGGUGUCAAAUUCGGCGAAACCUAAGCGCCCGCCCGGGCGUAUGGCAACGCGGAGCCAAGCUUCGGCGCCUGCGCCGAUGGAGGUGUAGUGACUAGACGGCACCCACCUAAGGCCAACGCUAUGGUGAAGGCAUAGUCUAGGGAGCGGCGAAAGUCACACAAACCGG [C82G A111G A120U A145C C169U U176C] — lower, 0.00228
- GUGCCUUGCGCCGGGAAACCACGCAAGGGAUGGUGUCAAAUUCGGCGAAACCUAAGCGCCCGCCCGGGCGUAUGGCAACGCGGAGCCAAGCUUCGGCGCCUGCGCCGAUGGAGGUGUAGUGACUAGACGGCACCCACCUAAGGCCAACGUUAUGGUGAAGGCAUAGUCCAGGGAGGGGCGAAAGUCACACAAACCGG [C82G A111G A120U A145C C150U U176G] — lower, 0.00303
- GUGCCUUGCGCCGGGAAACCACGCAAGGGAUGGUGUCAAAUUCGGCGAAACCUAAGCGCCCGCCCGGGCGUAUGGCAACGCGGAGCCAAGCUUCGGCGCCUGCGCCGAUGGAGGUGUAGUGACUAGACGGCACCCACCUAAGGCCAACGUUAUGGUGAAGGCAUAGUCCAGGGAGAGGCGAAAGUCACACAAACCGG [C82G A111G A120U A145C C150U U176A] — lower, 0.00647
- GUGCCUUGCGCCGGGAAACCACGCAAGGGAUGGUGUCAAAUUCGGCGAAACCUAAGCGCCCGCCCGGGCGUAUGGCAACGCGGAGCCAAGCUUCGGCGCCUGCGCCGAUGGAGGUGUAGUGACUAGACGGCACCCACCUAAGGCCAACGUUAUGGUGAAGGCAUAGUCCAGGGAGCGGCGAAAGUCACACAAACCGG [C82G A111G A120U A145C C150U U176C] — lower, 0.00541
